In publication PMC4636849:

Test system: H-NS
Assay: EMSA
Settings: EMSA: ~5 ng DNA, 50 ng poly(dI-dC), 15 ul, 20 C 10 min; binding buffer not stated (cited); 7% polyacrylamide gel in TAE (Tris-HCl 40 mM pH 7.4, Na acetate …)

Substance: mdtJI promoter fragment, 588 bp (-229 to +359)
- K half: 320 nM
